Source: patent CN117466995A (YIDAO BIOTECHNOLOGY SUZHOU CO LTD, dated 2024)
“And” between values parts separate entries of the source, which are not always exact repeats. Equal values may be shown once.

T1: HPV45型衣壳蛋白L1病毒样颗粒(VLP)抗原 (HPV 45型) (UniProt P36741)
T1 sequence: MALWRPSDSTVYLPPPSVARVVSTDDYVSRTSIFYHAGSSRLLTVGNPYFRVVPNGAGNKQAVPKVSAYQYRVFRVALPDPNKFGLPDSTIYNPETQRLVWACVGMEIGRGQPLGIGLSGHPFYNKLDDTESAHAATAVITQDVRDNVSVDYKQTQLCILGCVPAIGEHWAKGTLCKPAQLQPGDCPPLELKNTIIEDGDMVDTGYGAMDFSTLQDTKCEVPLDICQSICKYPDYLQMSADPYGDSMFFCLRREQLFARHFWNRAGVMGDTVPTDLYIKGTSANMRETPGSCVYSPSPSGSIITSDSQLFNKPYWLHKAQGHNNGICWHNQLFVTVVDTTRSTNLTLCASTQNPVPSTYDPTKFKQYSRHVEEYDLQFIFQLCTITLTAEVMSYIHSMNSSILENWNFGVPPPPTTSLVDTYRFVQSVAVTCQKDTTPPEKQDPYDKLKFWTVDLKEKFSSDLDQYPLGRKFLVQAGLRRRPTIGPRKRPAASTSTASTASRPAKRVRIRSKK

T2: HPV 33 VLP抗原 (HPV 33, UniProt P06416 1-499)
T2 sequence: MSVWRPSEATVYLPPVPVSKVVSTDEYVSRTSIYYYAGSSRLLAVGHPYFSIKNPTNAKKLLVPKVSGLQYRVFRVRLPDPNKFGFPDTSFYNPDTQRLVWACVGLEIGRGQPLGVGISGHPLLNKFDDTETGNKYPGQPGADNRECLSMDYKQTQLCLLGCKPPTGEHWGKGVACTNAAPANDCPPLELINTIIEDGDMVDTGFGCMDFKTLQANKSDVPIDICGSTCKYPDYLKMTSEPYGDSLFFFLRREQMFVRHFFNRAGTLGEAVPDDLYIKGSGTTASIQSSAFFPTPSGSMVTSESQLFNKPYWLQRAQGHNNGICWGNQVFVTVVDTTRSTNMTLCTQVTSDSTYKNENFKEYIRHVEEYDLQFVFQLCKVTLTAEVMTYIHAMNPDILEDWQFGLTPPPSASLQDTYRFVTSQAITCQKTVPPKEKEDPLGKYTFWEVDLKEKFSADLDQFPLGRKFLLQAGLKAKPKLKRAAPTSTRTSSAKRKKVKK

T3: HPV 16 VLP抗原 (HPV 16, UniProt P03101 1-505)
T3 sequence: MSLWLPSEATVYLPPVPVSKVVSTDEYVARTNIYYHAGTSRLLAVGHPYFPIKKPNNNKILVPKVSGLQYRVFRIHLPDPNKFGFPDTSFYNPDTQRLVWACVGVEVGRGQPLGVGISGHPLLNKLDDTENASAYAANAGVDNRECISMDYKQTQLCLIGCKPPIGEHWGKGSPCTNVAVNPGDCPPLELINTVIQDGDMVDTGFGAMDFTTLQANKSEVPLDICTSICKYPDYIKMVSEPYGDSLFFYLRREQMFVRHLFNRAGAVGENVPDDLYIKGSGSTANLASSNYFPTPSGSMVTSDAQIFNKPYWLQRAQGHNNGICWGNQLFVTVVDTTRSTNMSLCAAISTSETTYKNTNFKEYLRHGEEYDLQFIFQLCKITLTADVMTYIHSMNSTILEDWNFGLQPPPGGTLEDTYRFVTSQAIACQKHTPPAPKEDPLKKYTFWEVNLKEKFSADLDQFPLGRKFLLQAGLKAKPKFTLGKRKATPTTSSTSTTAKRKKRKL

B1: 杂交瘤细胞株7A5(CGMCC NO:45706)分泌的鼠源单克隆抗体 (antibody, V domains shown)
VH: QPGAELVKPGASVKLSCKASGYTFTSYWMHWVKQRPGQGLEWIGEINPSNGHTNYNEKFKSKATLTVDKSSSTAYMQLSSLTSEDSAVYYCAPCYGSSYDYYAMDYWGQGTSVTVSS
VL: DIVLTQSPASLAVSLGQRATISCRASQSVSTSSYSYMHWYQQKPGQPPKLLIKYASNLESGVPARFSGSGSGTDFTLNIHPVEEEDTATYYCQHSWEIPYTFGGGTKLEIK
notes: also called 鼠单抗7A5; 抗体7A5
B2: 杂交瘤细胞株11G1(CGMCC NO:45707)分泌的鼠源单克隆抗体 (antibody, V domains shown)
VH: QVQLQQPGAELVKPGASVKLSCKASGYTFTSYWMHWVKRRPGQGLEWIGEINPSNGLTNYNEKFKSKGTLTVDKSSSAAFMHLSSLTSEDSAVYYCARFHGSDLYAMDYWGQGTSVTVSS
VL: B1 VL
notes: also called 鼠单抗11G1; 抗体11G1

How the values were obtained:
[1] = target: T1, HPV45型衣壳蛋白L1病毒样颗粒(VLP)抗原 (HPV 45型); assay: sandwich ELISA, rabbit pAb R163 capture 1:500, mAb 1:20000; antigen 13.3 ug/ml, 2.5-fold series, step 2
[2] = target: T1, HPV45型衣壳蛋白L1病毒样颗粒(VLP)抗原 (HPV 45型); assay: sandwich ELISA, rabbit pAb R163 capture 1:500, mAb 1:20000; antigen 13.3 ug/ml, 2.5-fold series, step 3
[3] = target: T1, HPV45型衣壳蛋白L1病毒样颗粒(VLP)抗原 (HPV 45型); assay: sandwich ELISA, rabbit pAb R163 capture 1:500, mAb 1:20000; antigen 13.3 ug/ml, 2.5-fold series, step 8
[4] = target: T1, HPV45型衣壳蛋白L1病毒样颗粒(VLP)抗原 (HPV 45型); assay: direct ELISA on coated HPV45 VLP, purified antibody titrated; positive if OD > 2.1 x NC
[5] = target: T1, HPV45型衣壳蛋白L1病毒样颗粒(VLP)抗原 (HPV 45型); assay: sandwich ELISA, rabbit pAb R163 capture 1:500, mAb 1:20000; column 12, antigen amount not stated (only 11 dilutions described)
HPV 33 VLP抗原 = target: T2, HPV 33 VLP抗原; assay: direct ELISA on coated VLP antigens
HPV 16 VLP抗原 = target: T3, HPV 16 VLP抗原; assay: direct ELISA on coated VLP antigens
[6] = target: T1, HPV45型衣壳蛋白L1病毒样颗粒(VLP)抗原 (HPV 45型); assay: sandwich ELISA, rabbit pAb R163 capture 1:500, mAb 1:20000; antigen 13.3 ug/ml, 2.5-fold series, step 4
[7] = target: T1, HPV45型衣壳蛋白L1病毒样颗粒(VLP)抗原 (HPV 45型); assay: sandwich ELISA, rabbit pAb R163 capture 1:500, mAb 1:20000; antigen 13.3 ug/ml, 2.5-fold series, step 10
[8] = target: T1, HPV45型衣壳蛋白L1病毒样颗粒(VLP)抗原 (HPV 45型); assay: sandwich ELISA, rabbit pAb R163 capture 1:500, mAb 1:20000; antigen 13.3 ug/ml, 2.5-fold series, step 5
[9] = target: T1, HPV45型衣壳蛋白L1病毒样颗粒(VLP)抗原 (HPV 45型); assay: sandwich ELISA, rabbit pAb R163 capture 1:500, mAb 1:20000; antigen 13.3 ug/ml, 2.5-fold series, step 1
[10] = target: T1, HPV45型衣壳蛋白L1病毒样颗粒(VLP)抗原 (HPV 45型); assay: sandwich ELISA, rabbit pAb R163 capture 1:500, mAb 1:20000; antigen 13.3 ug/ml, 2.5-fold series, step 7
[11] = target: T1, HPV45型衣壳蛋白L1病毒样颗粒(VLP)抗原 (HPV 45型); assay: sandwich ELISA, rabbit pAb R163 capture 1:500, mAb 1:20000; antigen 13.3 ug/ml, 2.5-fold series, step 6

Row | Binder | OD [1] | OD [2] | OD [3] | 灵敏度 [4] | OD [5] | binding result (HPV 33 VLP抗原) | binding result (HPV 16 VLP抗原) | OD [6] | OD [7] | OD [8] | OD [9] | OD [10] | OD [11]
1 | B1 | 3.05 OD and 3 OD | 2.9 OD and 2.78 OD | 0.175 OD and 0.189 OD | 0.0005 µg/mL | 0.067 OD and 0.064 OD | no binding | no binding | 2.34 OD and 2.37 OD | 0.068 OD and 0.072 OD | 1.54 OD and 1.56 OD | 3.12 OD | 0.379 OD and 0.358 OD | 0.614 OD and 0.773 OD
2 | B2 | 3.03 OD and 3.09 OD | 2.67 OD and 2.65 OD | 0.115 OD and 0.108 OD | 0.0005 µg/mL | 0.045 OD and 0.05 OD | no binding | no binding | 1.82 OD and 1.98 OD | 0.062 OD and 0.051 OD | 0.922 OD and 1.02 OD | 3.1 OD and 3.01 OD | 0.218 OD and 0.206 OD | 0.364 OD and 0.447 OD
